US20050100965A1

Key:
(4C/A)-huIL-18 (human) [1] = target: (4C/A)-huIL-18 (human) (UniProt Q14116); experiment: Biacore, (4C/A)-HuIL-18
(4C/A)-huIL-18 (human) [2] = target: (4C/A)-huIL-18 (human) (UniProt Q14116); experiment: Biacore
NEM-huIL-18 (human) = NEM-huIL-18 (human) (UniProt Q14116); experiment: Biacore
[3] = target: natural human IL-18 (human) (UniProt Q14116); experiment: cell-based or functional assay
(4C/A)-huIL-18 (human) [4] = target: (4C/A)-huIL-18 (human) (UniProt Q14116); experiment: cell-based or functional assay
[5] = target: 125I labeled rhuIL-18 (human) (UniProt Q14116); experiment: Receptor Binding Assay: inhibition of 125I-rhu-IL-18 binding to IL-18Rαβ on TNF-treated KG-1 cells

Kd ((4C/A)-huIL-18 (human) [1]): 190 pM
koff ((4C/A)-huIL-18 (human) [1]): 2.6e-05 s⁻¹
kon ((4C/A)-huIL-18 (human) [1]): 140000 M⁻¹ s⁻¹
Kd ((4C/A)-huIL-18 (human) [2]): 135 pM
Kd (NEM-huIL-18 (human)): 98 pM
WBA, Neutralization Potency in vitro (IC50, nM) [3]: 5.7 nM
KG-1, Neutralization Potency in vitro (IC50, nM) ((4C/A)-huIL-18 (human) [4]): 0.03 nM
IC50 [5]: 1000 pM
Substance: IL-18BP-Fc (from UniProt O95998 31-194) (Fc fusion)
